Assay results published in US20190218253A1 (NATIONAL UNIVERSITY OF SINGAPORE, published 2019).
Square brackets hold non-standard residues; d marks the D form.

Legend:
[1] = molecular target: T1, retinoblastoma binding protein 4 (RBBp4) (UniProt Q09028 1-425); assay: fluorescence polarization competition: peptide titrated into RBBp4 + C-terminal FITC-labelled WT SALL4 peptide
T1 construct: Bought protein; Crystal structure numbering runs at least over residues 33-404; also called RbAp48
Description: (§1) Reactions were incubated at room temperature before the plate was read with an Envision instrument (Perkin Elmer). IC₅₀ values of peptides were determined using Prism (GraphPad).

[2] = molecular target: T1, retinoblastoma binding protein 4 (RBBp4); assay: as above; remark: listed apart in the source
T1 sequence (Q09028 whole entry): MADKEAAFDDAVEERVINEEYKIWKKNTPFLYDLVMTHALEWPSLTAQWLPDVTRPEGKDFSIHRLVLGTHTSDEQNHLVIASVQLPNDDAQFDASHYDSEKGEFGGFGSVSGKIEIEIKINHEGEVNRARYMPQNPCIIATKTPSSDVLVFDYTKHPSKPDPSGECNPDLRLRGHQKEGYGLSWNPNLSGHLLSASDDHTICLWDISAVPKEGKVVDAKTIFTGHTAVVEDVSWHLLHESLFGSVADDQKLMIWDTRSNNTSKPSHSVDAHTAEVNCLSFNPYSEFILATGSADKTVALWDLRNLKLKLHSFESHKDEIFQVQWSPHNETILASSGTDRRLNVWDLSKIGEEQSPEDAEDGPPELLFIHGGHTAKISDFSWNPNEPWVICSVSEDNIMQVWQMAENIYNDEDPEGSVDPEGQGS

[3] = molecular target: T1, retinoblastoma binding protein 4 (RBBp4); assay: fluorescence polarization competition, ratio of IC50s
Description: These three substitutions (Gln4Phe, Pro7Phe, and His9Trp) were incorporated into peptide 46 ([…], named FFW hereof, (SEQ ID NO: 14)).
as §1

[4] = molecular target: T1, retinoblastoma binding protein 4 (RBBp4); assay: cell-based or functional assay
[5] = molecular target: T1, retinoblastoma binding protein 4 (RBBp4); assay: isothermal titration calorimetry, peptide titrated into RBBp4, 1:1 binding model
Description: (§2) ITC was carried out with an Auto-iTC200 instrument from Microcal Inc. at 25° C. […] of RBBp4 in 50 mM Tris and 100 mM NaCl at pH 7.4 was loaded into the ITC cell. Sal14 peptide at […] was auto-loaded into the syringe. The titration was carried out with 18 injections of 2.4 μl, performed over a period of 30 min with stirring at 1000 rpm. The ITC data was analysed using Origin software from Microcal.

[6] = molecular target: T1, retinoblastoma binding protein 4 (RBBp4); assay: SPR (Biacore T200), RBBp4 amine-coupled to CM5 chip, peptide as analyte; surface plasmon resonance
Description: SPR studies were performed using a Biacore T200 biosensor (GE Healthsciences). ˜12,000 resonance units (RU) of RBBp4 were immobilised by amine coupling to the carboxymethylated dextran matrix of a Series S CM5 chip (Biacore, GE Healthcare). […] The association time and flow rate were set at 60 s and 30 μl/min respectively.

[7] = molecular target: T1, retinoblastoma binding protein 4 (RBBp4); assay: isothermal titration calorimetry, peptide titrated into RBBp4, 25 °C; isothermal titration calorimetry
Description: as §2

[8] = molecular target: T1, retinoblastoma binding protein 4 (RBBp4); assay: fluorescence polarization competition; peptide titrated into RBBp4 with C-labelled FITC-SALL4 WT peptide as the displaced tracer
Description: (§3) FIGS. 3A-3E. […] The difference in the binding free energy (ΔΔGbind) of the alanine mutants (ΔGₘᵤₜₐₙₜ, Ala7 was mutated to glycine) and wild type (ΔG_{wild type}) was calculated (ΔΔGbind=ΔGₘᵤₜₐₙₜ−ΔG_{wild type}). ΔΔGbind was tabulated (left) and plotted in a bar chart (right). […] Mutated residues are highlighted in red. The IC₅₀ of each peptide, including WT, was determined by Fluorescence Polarization (FP). […] Polarization was measured in mP. […] Pep-1 carrier was added to the peptide to facilitate cellular penetration of the peptides.
(§4) In silico analysis using computational alanine scanning was performed on the key residues identified by the crystal contacts.

[9] = molecular target: T1, retinoblastoma binding protein 4 (RBBp4); assay: as above; remark: listed apart in the source
Description: as §3, §4

T1 sequence (Q09028 whole entry, the tested form may be a part): as the sequence (Q09028 whole entry) above

Binder | IC50 [1] [nM] | other results
Ac-RRKQAK[code p]QHI-NH2 (not fully specified; printed as Ac-RRKQAKpQHI-NH2, P7 mutation of peptide 6; position 7 printed in lower case) [Peptide 31 (Ac-RRKQAKpQHI-NH2)] | 6600 | –
Ac-MSRRKQAKPQH-NH2 (C-terminal truncation of WT) [Peptide 2 (Ac-MSRRKQAKPQH-NH2)] | 1290 | IC50 [2]: 1400 nM
Ac-SRRKQAKPQHI-NH2 (N-terminal truncation of WT) [Peptide 5 (Ac-SRRKQAKPQHI-NH2)] | 600 | –
Ac-MSRRKQAKPQHI-NH2 (also called WT; original 12-residue WT peptide) [Peptide 1 (Ac-MSRRKQAKPQHI-NH2)] | 1040 | IC50 [2]: 1300 nM
Ac-RRKFAKFQWI-NH2 (Gln4Phe, Pro7Phe and His9Trp of peptide 6; also called FFW peptide) [Peptide 46 (Ac-RRKFAKFQWI-NH2), FFW] | 23 | fold increase in affinity compared with the 12-residue WT peptide [3]: > 56 fold
Ac-MSRRKQAKP-NH2 (C-terminal truncation of WT) [Peptide 4 (Ac-MSRRKQAKP-NH2)] | 1910 | IC50 [2]: 1960 nM
MSRRKQAKPQHI (As used in ITC, SPR, crystal structure and the alanine-scan FP assay; also called SALL4 WT; 12-aa SALL4 peptide) [WT SALL4 peptide (1-12 aa), MSRRKQAKPQHI] | – | PTEN expression by Q-PCR in SNU398 cells treated with peptide [4]: 3 fold; Ka [5]: 960000 M⁻¹; Kd [6]: 1500 nM; koff [6]: 0.026 s⁻¹; kon [6]: 16800 M⁻¹ s⁻¹; Kd [7]: 1040 nM; IC50 [2]: 1000 nM
MSARKQAKPQHI [SALL4 (1-12) peptide bearing the R3A mutation] | – | IC50 [2]: 3800 nM; IC50 [8]: 4500 nM; IC50 [9]: 4500 nM
MSRAKQAKPQHI [SALL4 (1-12) peptide bearing the R4A mutation] | – | IC50 [2]: 8900 nM
MSRAKAAKPQHI (One of the double mutants with the loss of only one key residue (group m57); also called SALL4 (1-12) peptide, double mutant R4A-Q6A) [mut R4A,Q6A] | – | IC50 [8]: 4700 nM; IC50 [9]: 4700 nM
MSRRKAAKPQHI [SALL4 (1-12) peptide bearing the Q6A mutation] | – | IC50 [2]: 1300 nM
MSRRAAAKPQHI (One of the double mutants with the loss of only one key residue (group m57); also called SALL4 (1-12) peptide, double mutant K5A-Q6A) [mut K5A,Q6A] | – | IC50 [8]: 4400 nM; IC50 [9]: 4400 nM
MSRRAQAKPQHI [SALL4 (1-12) peptide bearing the K5A mutation] | – | IC50 [2]: 7000 nM
MSARKAAKPQHI (One of the double mutants with the loss of only one key residue (group m57); also called SALL4 (1-12) peptide, double mutant R3A-Q6A) [mut R3A,Q6A] | – | IC50 [8]: 4100 nM; IC50 [9]: 4100 nM
Ac-RRKQAKPQHI-NH2 [Peptide 6 (printed Ac-…-NH2; WT without Met1 and Ser2)] | 360 | –
Ac-RRKLAKPQHI-NH2 (Q4 mutation of peptide 6) [Peptide 23 (Ac-RRKLAKPQHI-NH2)] | 270 | –
Ac-RRKQARPQHI-NH2 [Peptide 30 (Ac-RRKQARPQHI-NH2)] | 330 | –
Ac-RRKQKKPQHI-NH2 [Peptide 25 (Ac-RRKQKKPQHI-NH2)] | 380 | –
Ac-RRKQAAPQHI-NH2 [Peptide 12 (Ac-RRKQAAPQHI-NH2)] | 160 | –
Ac-RRKQAKPVHI-NH2 [Peptide 37 (Ac-RRKQAKPVHI-NH2)] | 350 | –
Ac-RRKQAKPQYI-NH2 [Peptide 40 (Ac-RRKQAKPQYI-NH2)] | 2850 | –
Ac-RRKQAKPQAI-NH2 [Peptide 15 (Ac-RRKQAKPQAI-NH2)] | 730 | –
Ac-RRRQAKPQHI-NH2 (K3 mutation of peptide 6) [Peptide 19 (Ac-RRRQAKPQHI-NH2)] | 630 | –
Ac-RRKQAKPLHI-NH2 [Peptide 38 (Ac-RRKQAKPLHI-NH2)] | 460 | –

Binder | IC50 [1] [nM] | other results
Ac-RRKVAKPQHI-NH2 (Q4 mutation of peptide 6) [Peptide 22 (Ac-RRKVAKPQHI-NH2)] | 410 | –
Ac-RRKQALPQHI-NH2 [Peptide 28 (Ac-RRKQALPQHI-NH2)] | 310 | –
Ac-RRKQAVPQHI-NH2 [Peptide 27 (Ac-RRKQAVPQHI-NH2)] | 910 | –
Ac-RRKQAKAQHI-NH2 (Ala scan of peptide 6) [Peptide 13 (Ac-RRKQAKAQHI-NH2)] | 270 | –
Ac-KRKQAKPQHI-NH2 (R1 mutation of peptide 6) [Peptide 17 (Ac-KRKQAKPQHI-NH2)] | 3800 | –
Ac-RRKFAKPQHI-NH2 [Peptide 24 (Ac-RRKFAKPQHI-NH2)] | – | fold enhancement in binding affinity over peptide 6 [3]: 7 fold; IC50 [2]: 50 nM
Ac-RRKQAKPNHI-NH2 [Peptide 36 (Ac-RRKQAKPNHI-NH2)] | 790 | –
Ac-RKKQAKPQHI-NH2 (R2 mutation of peptide 6) [Peptide 18 (Ac-RKKQAKPQHI-NH2)] | 2300 | –
Ac-RRKQAKLQHI-NH2 (P7 mutation of peptide 6) [Peptide 33 (Ac-RRKQAKLQHI-NH2)] | 4400 | –
Ac-RRKQAKPQHA-NH2 [Peptide 16 (Ac-RRKQAKPQHA-NH2)] | 460 | –
Ac-RRKQRKPQHI-NH2 [Peptide 26 (Ac-RRKQRKPQHI-NH2)] | 460 | –
Ac-RRKQAKPQHL-NH2 (To be rechecked) [Peptide 44 (printed Ac-RRKCIAKPOHL-NH2)] | 590 | –
Ac-RRKQAKPQWI-NH2 [Peptide 41 (Ac-RRKQAKPQWI-NH2)] | 120 | fold improvement of binding affinity compared with peptide 6 [3]: 3 fold
Ac-RRKEAKPQHI-NH2 (Q4 mutation of peptide 6) [Peptide 20 (Ac-RRKEAKPQHI-NH2)] | 3490 | –
Ac-RRKNAKPQHI-NH2 (Q4 mutation of peptide 6) [Peptide 21 (Ac-RRKNAKPQHI-NH2)] | 920 | –
Ac-RRKQAKPAHI-NH2 [Peptide 14 (Ac-RRKQAKPAHI-NH2)] | 120 | –
Ac-RRKQAKFQHI-NH2 [Peptide 34 (Ac-RRKQAKFQHI-NH2)] | 170 | –
Ac-RRKQAKPQFI-NH2 [Peptide 39 (Ac-RRKQAKPQFI-NH2)] | 340 | –
Ac-RRKAAKPQHI-NH2 [Peptide 11 (Ac-RRKAAKPQHI-NH2)] | 190 | –
Ac-RRKQAKPEHI-NH2 [Peptide 35 (Ac-RRKQAKPEHI-NH2)] | 570 | –
Ac-RRKQAFPQHI-NH2 [Peptide 29 (Ac-RRKQAFPQHI-NH2)] | 530 | –
Ac-RRKQAKVQHI-NH2 (P7 mutation of peptide 6) [Peptide 32 (Ac-RRKQAKVQHI-NH2)] | 5800 | –
Ac-RRKQAKPQVI-NH2 [Peptide 42 (Ac-RRKQAKPQVI-NH2)] | 480 | –
Ac-MSRRKQAKPQ-NH2 (C-terminal truncation of WT) [Peptide 3 (Ac-MSRRKQAKPQ-NH2)] | 800 | –
